Assay results: US20230036503A1, “Fusion Protein, Amino Acid Sequence Thereof, Coding Nucleotide Sequence Thereof, Preparation Method Thereof and Use Thereof” (priority 2019, published 2023)
Entries after “also recorded” stand apart in the source; their conditions may differ.

Assays:
[1] = system: callose accumulation of Arabidopsis; assay: Intensity of immune responses of various fusion proteins: callose fluorescence in Arabidopsis leaves quantified by ImageJ; assay type: in vivo; settings: 100 nmol final concentration
Method: Computation was conducted through image processing software ImageJ according to obtained callose accumulation fluorescence images, and the immune activation ability of the fusion proteins to the plants was quantified by virtue of the fluorescence intensity. Computing methods were as follows:
Measured IntDen=Integrated Density=Integrated Optical Density;
Measured Area=Image Area;
MD(mean optical density)=IntDen/Area.

[2] = system: callose accumulation of Arabidopsis; assay: Callose accumulation in Arabidopsis leaves infiltrated with fusion protein or PAMP polypeptide (aniline blue staining); assay type: in vivo
Method: In immune responses of plant cells, callose might accumulate. The callose might enhance the mechanical strength of plant cell walls and block channels through which pathogens spread between the cells, thereby limiting invasion of pathogenic microorganisms. With a model plant Arabidopsis as a material and callose accumulation as immune index, the immune activation abilities of different concentrations of fusion proteins His-MP7 were analyzed and were compared to that of a single PAMP polypeptide. A specific experimental operation was as follows:
Final concentrations of the fusion protein His-MP7 and a polypeptide flg22 were adjusted to be 1 μM, 100 nM and 10 nM respectively, with water being served as a control. Four-week old Arabidopsis leaves were infiltrated with an injection syringe permeation method for 12 h, the treated leaves were collected and put in a 6-well plate, and a suitable amount of washing buffer was added for 4 h incubation. The washing buffer was substituted by an aniline blue staining solution with a final concentration of 0.1 mg/mL for staining at a room temperature in the dark for 1 h, and the callose accumulation was observed using a 10 times objective lens of a fluorescence microscope. Each treatment contained three biological replicates with three repeated experiments.
A final concentration of the fusion protein His-MP7 and each of polypeptides flg22, nlp20, elf18, pip1, pep1, csp22 and flgII-28 was adjusted to be 100 nM, with csp22 and flgII-28 being served as negative controls. The four-week old Arabidopsis leaves were infiltrated with an injection syringe permeation method; and a sample treatment method was the same as mentioned above.

[3] = system: oxidative burst immune response in corn leaves; assay: Reactive oxygen species / oxidative burst in corn leaves (DAB staining); assay type: in vivo; settings: 100 nM, corn leaves soaked 48 h, FIG. 4
Method: Oxidative burst was considered as one of earliest responses of plants to pathogenic microorganisms and played an important role in defense responses of the plants. […] After the plants were infected by the pathogenic microorganisms, the reactive oxygen species could be produced and accumulate, and oxidative burst could be caused. With plant corns as a material and the reactive oxygen species as an immune index, the immune activation ability of 100 nM fusion protein His-MP7 was analyzed. A specific experimental operation was as follows:
Two-week old corn leaves were taken, the intermediate portion of each leaf was taken, shorn with a length of 5 cm and immersed into 1 μg/mL auxin 6BA solution. It was added with the fusion protein His-MP7 with a final concentration of 100 nM, with an aqueous solution of auxin 6BA being served as a blank control. The intermediate portions were soaked for 48 h, stained for 12 h using 1 mg/mL DAB solution, eluted for 12 h by a washing buffer (ethyl alcohol:acetic acid:glycerin=3:1:1) and observed after being placed for 30 min.

Magaporthe grisea = assay type: in vivo; settings: rice leaves, 100 nM
[4] = system: Pseudomonas syringae DC3000; assay: Resistance of Arabidopsis to DC3000 pathogenic bacteria (colony growth in injected leaves)
Method: (1) A strain DC3000 of Pseudomonas syringae was inoculated to 20 mL of SOC+str (streptomycin) liquid medium for overnight culture for 14-16 h at 28° C., OD600 was determined, and a product was subjected to gradient dilution until OD600 was 0.00005 to obtain a bacterial solution.
(2) The fusion protein His-MP7 was added in the bacterial solution until a final concentration was 100 nM, and a bacterial solution, to which water was added, was served as a control. Meanwhile, four-week old healthy Arabidopsis leaves were injected with the bacterial solution and were sampled at Day 0 (four leaves from one plant) and Day 3 (five plants, two leaves from each plant) respectively. Each leaf was punched by a puncher. The punched small discs were taken; 500 μL of 10 mM MgCl2 was added at Day 0; the small discs were ground in a 1.5 mL EP tube; and 50 μL of each of four samples in the same treatment was spotted on one SOC+str (streptomycin) solid plate (the plate required to be blow-dried, and then the shape of each spotted sample could be kept) and cultured for 16-24 h at 28° C. Samples were photographed and observed for statistics of colony growth.
(3) At Day 3, the two leaves on each plant of the five plants were punched to take small discs similarly; 250 μL of 10 mM MgCl2 was added; and the small discs were ground in the 1.5 mL EP tube and diluted by MgCl2 stepwise until 1×10^−5.

[5] = system: Tobacco mosaic virus (TMV); assay: Resistance of tobacco plants to Tobacco mosaic virus (disease grading, disease index, control effect)
Method: The experiment was divided into an experimental group and a control group (with 20 lines of tobacco plants in each group). After the experimental group was injected with a recombinant protein, viruses were inoculated to the experimental group; and after the control group was injected with the sterile water, the viruses were inoculated to the control group. It was inoculated through the following steps:
(1) Fresh leaves infected with TMV were added to a small amount of sterilized phosphate buffer (1:200) and were ground in a mortar and filtered with sterilized gauze to remove the residues of the infected leaves. The above fresh juice was prepared as an inoculum and a concentration of the inoculum of the TMV was adjusted to obtain an aqueous solution of TMV.
(2) When tobacco seedlings were in the 4-5 true leaves period, fully expanded true leaves were selected; a suitable amount of quartz sands were uniformly scattered on the leaf surfaces; and the leaf surfaces were slightly rubbed by an absorbent ball dipped with the aqueous solution of TMV for 1-2 times and then immediately washed with water.
(3) After inoculation for 21 days, the morbidity of tobacco plants was observed. With each plant as a unit for assessment, the grading standard was as follows:
Grade 0: freedom from disease
Grade 3: newborn leaf had yellow-green stripes parallel to the leaf vein with slightly curling;
Grade 7: plant was dwarfed, leaf had yellowish-white strips with curling, and newborn leaves were twisted and prolapsed and could not be normally expanded; and
Grade 9: plant was dwarfed seriously and subjected to chlorina or died.
A disease index and the control effect were computed with the following methods:
Disease index=[Σ(number of infected plants in various grades×relative grade value)/(total number of plants investigated×9)]×100;
Control effect (%)=[(control disease index-treatment disease index)/control disease index]×100.

[6] = 21 days after TMV inoculation, 20 plants per group

With TP10 as the molecule, how does the “MD (mean optical density = IntDen/Area) of callose fluorescence” value ([1]; H2O 0.002-0.003) read?
Its value is 0.378.

What about the Immune activation ([1]; H2O: No) of the same molecule?
Its Immune activation is “Yes”.

B1: His-MP7: heptapeptide fusion protein, SEQ ID NO: 15: elf18, csp22, flg22, flgII-28, nlp20, pep1, pip1 in sequence, linkers GAG and AGA, HIS tag (protein)
chain: MGSSHHHHHHSSGLVPRGSHMASMTGGQQMGRDPNSSSVDKLSKEKFERTKPHVNVGTIGGAGAVGTVKWFNAEKGFGFITPDDGAGAQRLSTGSRINSAKDDAAGLQIAGAGESTNILQRMRELAVQSRNDSNSATDREAGAGAIMYSWYFPKDSPVTGLGHRAGAATKVKAKQRGKEKVSSGRPGQHNAGARLASGPSPRGRGH
modifications: his-MP7
What does the source list for B1?
intensity of callose accumulation compared with flg22 ([2]; 100 nM His-MP7 versus 1 μM flg22, FIG. 2): equivalent to that induced by 1 μM PAMP polypeptide flg22; callose accumulation of Arabidopsis ([2]; 100 nM, leaf infiltration 12 h, FIG. 2): obviously induced; immune activity effect compared with single PAMP polypeptides (callose accumulation) ([2]; all at 100 nM, flg22, nlp20, elf18, pip1, pep1, csp22, flgII-28, FIG. 3): superior to those of all the PAMP polypeptides; also recorded: superior to that of a single PAMP polypeptide; induction of oxidative burst immune response [3]: could induce the oxidative burst immune response; scab area percentage (Magaporthe grisea; 3-4 days, untreated 11.6%): 1.9%; infection rate of Magaporthe grisea lowered by (Magaporthe grisea; versus untreated): 83.6%; bacterium growth index ([4]; 100 nM in bacterial solution, Arabidopsis leaves, FIG. 5, control 5.38): 4.05; reduction of growth amount of Pseudomonas syringae DC3000 ([4]; 100 nM, versus water control): ≥ 10; Number of Infect Tobacco Plants, 0 grade [5, 6]: 1 plant; Number of Infect Tobacco Plants, 1 grade [5, 6]: 11 plant; Number of Infect Tobacco Plants, 3 grade [5, 6]: 6 plant; Number of Infect Tobacco Plants, 5 grade [5, 6]: 2 plant; Number of Infect Tobacco Plants, 7 grade [5, 6]: 0 plant; Number of Infect Tobacco Plants, 9 grade [5, 6]: 0 plant; Control effect ([5]; tobacco, TMV, 21 days, versus H2O control): 72.5%; Disease index ([5]; tobacco, TMV, 21 days, H2O control 78.9): 21.7
